The target in one experiment is HLA-A*11:01. Briefly: IEDB peptide-MHC binding, cellular MHC/competitive/fluorescence; ≥ and ≤ were set here for values at or beyond the usual limits of such assays. Conditions: source organism: Hepatitis B virus.
The target of the next experiment is HLA-A*68:01. The experiment is described as above. Conditions: source organism: Hepatitis B virus.
In experiment [1] the target is HLA-A*68:02. Described as above.
Experiment [2] has as its target HLA-A*02:02. Briefly: IEDB peptide-MHC binding, purified MHC/competitive/radioactivity; ≥ and ≤ were set here for values at or beyond the usual limits of such assays.
Experiment [3] addresses HLA-A*02:03. The experiment is described as above.
In experiment [4] the target is HLA-A*02:06. The description is as above.
A further experiment concerns the target HLA-A*03:01. Described as above. Particulars: source organism: Hepatitis B virus.
For another experiment, the target named is HLA-A*31:01. Described as above. Conditions: source organism: Hepatitis B virus.
In experiment [5] the target is HLA-A*68:02. Described as above.
Experiment [6] deals with HLA-A*02:03. Briefly: IEDB peptide-MHC binding, cellular MHC/competitive/fluorescence; ≥ and ≤ were set here for values at or beyond the usual limits of such assays.
In another experiment the target is HLA-A*01:01. The experiment is described as above. Particulars: source organism: Vaccinia virus WR.
Experiment [7] has as its target HLA-A*02:01. The description is as above. Particulars: source organism: Vaccinia virus WR.
For experiment [8], the target named is HLA-A*02:02. The experiment is described as above. Particulars: source organism: Vaccinia virus WR.
For experiment [9], the target named is HLA-A*02:06. The experiment is described as above. Conditions: source organism: Vaccinia virus WR.
The target in experiment [10] is HLA-A*23:01. The experiment is described as above. Particulars: source organism: Vaccinia virus WR.
Another experiment concerns the target HLA-A*24:02. Described as above. Particulars: source organism: Vaccinia virus WR.
In another experiment the target is HLA-A*26:01. Described as above. Conditions: source organism: Vaccinia virus WR.
The next experiment addresses HLA-A*29:02. The description is as above. Conditions: source organism: Vaccinia virus WR.
Another experiment deals with HLA-A*30:02. The experiment is described as above. Particulars: source organism: Vaccinia virus WR.
The target of experiment [11] is HLA-A*02:01. Briefly: IEDB peptide-MHC binding, purified MHC/competitive/radioactivity; ≥ and ≤ were set here for values at or beyond the usual limits of such assays. Conditions: source organism: Vaccinia virus WR.
Experiment [12] deals with HLA-A*23:01. The experiment is described as above. Conditions: source organism: Vaccinia virus WR.
[13] abbreviates: source organism: Hepatitis B virus.
Where [14] appears, read: source organism: Vaccinia virus WR.

IC50 data for 10 sequences are collected here from the Immune Epitope Database (IEDB).

A value given as a limit tells only on which side of the number the result lay.

With ILRGTSFVYV, the half-inhibitory concentration (IC50) was at least 70 µM in the experiment with HLA-A*11:01; at least 70 µM with HLA-A*68:01; 37.2 µM in the experiment with HLA-A*68:02 [1] (setting [13]); 0.0039 µM in the experiment with HLA-A*02:02 [2] (setting [13]); 0.0022 µM with HLA-A*02:03 [3] (setting [13]); 0.083 µM with HLA-A*02:06 [4] (setting [13]). In addition, the results for the IC50 with HLA-A*03:01 and with HLA-A*31:01 were 4.77 µM and 1.36 µM, respectively.
For the sequence LLDYQGMLPV, the IC50 was 28.5 µM with HLA-A*11:01; at least 70 µM in the experiment with HLA-A*68:01; 0.0026 µM with HLA-A*02:06 [4] (setting [13]); 0.063 µM with HLA-A*03:01; 4.01 µM with HLA-A*31:01; 0.626 µM with HLA-A*68:02 [5] (setting [13]).
As for LLVPFVQWFV, the IC50 stood at 10.5 µM in the experiment with HLA-A*02:03 [6] (setting [13]); 8.09 µM with HLA-A*11:01; 45.2 µM in the experiment with HLA-A*68:01; 0.00017 µM with HLA-A*02:02 [2] (setting [13]); 0.476 µM in the experiment with HLA-A*03:01; 0.161 µM with HLA-A*31:01. The IC50 with HLA-A*68:02 [5] (setting [13]) was determined as 0.068 µM.
As for LQDIVNEHDI, the IC50 in the experiment with HLA-A*01:01 was at least 70 µM; with HLA-A*02:01 [7], 23.3 µM; in the experiment with HLA-A*02:02 [8], 7.63 µM; in the experiment with HLA-A*02:03 [6] (setting [14]), 38.2 µM; with HLA-A*02:06 [9] it was 10.8 µM; with HLA-A*23:01 [10], at least 70 µM. Also, the IC50 with HLA-A*24:02, with HLA-A*26:01, with HLA-A*29:02, with HLA-A*30:02 and in the experiment with HLA-A*68:02 [1] (setting [14]) was at least 70 µM in each case.
With QQFANVISKI, the IC50 was at least 70 µM in the experiment with HLA-A*01:01; 7.32 µM with HLA-A*02:01 [7]; 12.2 µM with HLA-A*23:01 [10]; at least 70 µM in the experiment with HLA-A*24:02; at least 70 µM in the experiment with HLA-A*26:01; at least 70 µM with HLA-A*29:02. Moreover, the IC50 in the experiment with HLA-A*30:02 was 9.29 µM; in the experiment with HLA-A*02:02 [2] (setting [14]) it was 0.051 µM; with HLA-A*02:03 [3] (setting [14]) it was 0.0017 µM; with HLA-A*02:06 [4] (setting [14]) it was 0.863 µM; with HLA-A*68:02 [5] (setting [14]), 1.05 µM.
With SQAKKPEVRI, the IC50 in the experiment with HLA-A*01:01 is at least 70 µM; in the experiment with HLA-A*02:01 [7] it was 46.3 µM; in the experiment with HLA-A*02:02 [8], 10.7 µM; with HLA-A*02:06 [9] it was 5.86 µM; with HLA-A*23:01 [10], 51.7 µM; with HLA-A*24:02, 32.1 µM. The IC50 with HLA-A*26:01 was at least 70 µM; with HLA-A*29:02, at least 70 µM; in the experiment with HLA-A*30:02, at least 70 µM; with HLA-A*02:03 [3] (setting [14]), 2.37 µM; with HLA-A*68:02 [5] (setting [14]), 1.67 µM.
As for TQVKELGIAI, the IC50 with HLA-A*01:01 is at least 70 µM; in the experiment with HLA-A*23:01 [10], 38.6 µM; with HLA-A*24:02, at least 70 µM; in the experiment with HLA-A*26:01, 49.6 µM; with HLA-A*29:02, at least 70 µM; with HLA-A*30:02, at least 70 µM. Further, the IC50 with HLA-A*02:01 [11] stood at 1.76 µM; with HLA-A*02:02 [2] (setting [14]), 2.17 µM; in the experiment with HLA-A*02:03 [3] (setting [14]) it was 0.704 µM; with HLA-A*02:06 [4] (setting [14]) it was 0.0039 µM; with HLA-A*68:02 [5] (setting [14]), 1.18 µM.
VQSVLRDISI: the concentration for half-maximal inhibition (IC50) is 15.6 µM with HLA-A*01:01; 25.4 µM with HLA-A*24:02; 6.66 µM in the experiment with HLA-A*26:01; at least 70 µM with HLA-A*29:02; 19.7 µM in the experiment with HLA-A*30:02; 0.497 µM with HLA-A*02:01 [11]. The IC50 in the experiment with HLA-A*02:02 [2] (setting [14]) was determined as 0.078 µM; with HLA-A*02:03 [3] (setting [14]) it was 0.541 µM; with HLA-A*02:06 [4] (setting [14]), 0.132 µM; in the experiment with HLA-A*23:01 [12], 3.5 µM; with HLA-A*68:02 [5] (setting [14]), 1.29 µM.
Regarding VQTIVFIWFI, the IC50 is 5.13 µM with HLA-A*01:01; 32.8 µM with HLA-A*23:01 [10]; at least 70 µM in the experiment with HLA-A*24:02; 16 µM with HLA-A*26:01; 20.3 µM with HLA-A*29:02; 13.3 µM with HLA-A*30:02. Also, the IC50 in the experiment with HLA-A*02:01 [11] was 0.952 µM.
On to YQNEVTPEYI, for which the concentration for half-maximal inhibition (IC50) with HLA-A*01:01 is at least 70 µM; with HLA-A*23:01 [10], 26.9 µM; with HLA-A*24:02, at least 70 µM; in the experiment with HLA-A*26:01, at least 70 µM; in the experiment with HLA-A*29:02, 19.4 µM; with HLA-A*30:02, 8.74 µM. In addition, the IC50 in the experiment with HLA-A*68:02 [1] (setting [14]) amounted to 8.57 µM; with HLA-A*02:01 [11], 0.0081 µM; with HLA-A*02:02 [2] (setting [14]), 0.0027 µM; with HLA-A*02:03 [3] (setting [14]) it was 0.00021 µM; with HLA-A*02:06 [4] (setting [14]) it was 0.0026 µM.
